Assay results published in article PMC4933460, “Extracellular Regulation of Bone Morphogenetic Protein Activity by the Microfibril Component Fibrillin-1*” (The Journal of Biological Chemistry, 2016).
Values belong to the binder of their own block, whether it stands above or below them.

B8: BMP-7 prodomain, full-length PD (residues 30-292), E. coli (domain or fragment)
chain: not shown
notes: also called full-length BMP-7 PD; source: E. coli, purified by chelating chromatography; not shown: His6, C-terminal, kept

Experiments:
[1] = molecular target: B8; assay: SPR; PD/PD interaction: 500-800 RU of full-length PD (30-292) or truncated variants (48-292, 55-292) immobilised, 0-320 nM PD variants injected in HBS-EP with 1 M urea; apparent KD; conditions: both partners purified
[2] = molecular target: T1, rF87, N-terminal fragment of fibrillin-1 (Ser19-Ile329) (UniProt P35555 19-329); assay: SPR; PD variants immobilised at 500-800 RU, rF87 injected at 0-80 nM in HBS-EP (no urea); apparent KD; conditions: both partners purified
T1 construct: The sentence of the methods may also give rF87 the tandem C-terminal Strep-tag; it cannot be told; also called fibrillin-1 (rF87); N-terminal end of fibrillin-1

[3] = molecular target: the molecule itself; assay: velocity sedimentation in sucrose gradients; 10 μg BMP-7 complex dialysed against TBS with 1 M urea, 5-20% sucrose gradient, 28 fractions, Western blots for PD and GF
[4] = molecular target: B8; assay: SPR; E. coli-derived full-length PD (30-292) immobilised, GF flown over in HBS-EP with 1 M urea; apparent KD = kd/ka; conditions: both partners purified
[5] = molecular target: B8; assay: SPR; 1,000 RU of BMP-7 PD immobilised, 0-80 nM GF injected in sodium acetate buffer pH 4.5, 0.15 M NaCl, 3 mM EDTA, 0.005% P20; apparent KD; conditions: both partners purified
[6] = molecular target: B8; assay: SPR; BIAcore 2000; BMP-7 GF covalently coupled to a CM5 chip (500 RU), PD variants flown over in HBS-EP pH 7.4 with 1 M urea; 1:1 model with mass transfer; apparent KD = kd/ka; conditions: both partners purified
[7] = molecular target: T2, BMP-7 PD truncation variant 48-292 (UniProt P18075 48-292); assay: as above; conditions: both partners purified
T2 construct: source: E. coli, purified by chelating chromatography; not shown: His6, C-terminal, kept

[8] = molecular target: T3, BMP-7 PD truncation variant 55-292 (UniProt P18075 55-292); assay: as above; conditions: both partners purified
T3 construct: source: E. coli, purified by chelating chromatography

[9] = molecular target: T4, BMP-7 PD truncation variant 65-292 (UniProt P18075 65-292); assay: as above; conditions: both partners purified
T4 construct: source: E. coli, purified by chelating chromatography

BMP-7 PD (30-292) H66A = molecular target: T5, BMP-7 PD (30-292) H66A (UniProt P18075 30-292, H66A); assay: ELISA; sandwich ELISA of reconstitution in solution: PD variants dialysed with the GF in TBS with 1 M urea overnight, captured by coated monoclonal anti-His6 antibody (C-terminal His6 of the PD), GF detected with an anti-GF antibody; conditions: both partners purified
T5 construct: source: E. coli, purified by chelating chromatography; not shown: His6, C-terminal, kept

BMP-7 PD (30-292) R67A = molecular target: T6, BMP-7 PD (30-292) R67A (UniProt P18075 30-292, R67A); assay: as above; conditions: both partners purified
T6 construct: source: E. coli, purified by chelating chromatography; not shown: His6, C-terminal, kept

BMP-7 PD (30-292) P68A = molecular target: T7, BMP-7 PD (30-292) P68A (UniProt P18075 30-292, P68A); assay: as above; conditions: both partners purified
T7 construct: source: E. coli, purified by chelating chromatography; not shown: His6, C-terminal, kept

[10] = molecular target: the molecule itself; assay: SPR; PD/PD interaction: 500-800 RU of full-length PD (30-292) or truncated variants (48-292, 55-292) immobilised, 0-320 nM PD variants injected in HBS-EP with 1 M urea; apparent KD

T1 sequence (P35555 19-329): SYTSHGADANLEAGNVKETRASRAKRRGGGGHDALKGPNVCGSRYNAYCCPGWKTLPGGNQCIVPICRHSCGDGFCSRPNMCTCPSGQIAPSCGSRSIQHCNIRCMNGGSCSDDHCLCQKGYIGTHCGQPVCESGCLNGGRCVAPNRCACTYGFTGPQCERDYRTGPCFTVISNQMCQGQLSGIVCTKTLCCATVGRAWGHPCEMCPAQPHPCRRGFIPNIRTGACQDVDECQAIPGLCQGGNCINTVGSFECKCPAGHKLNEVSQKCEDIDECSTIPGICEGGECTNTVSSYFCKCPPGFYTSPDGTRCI

Kd [1]: 39.1 ± 3.3 nM
B1: BMP-7 PD variant 241-292 (domain or fragment, UniProt P18075 241-292, looked up)
chain: HNLGLQLSVETLDGQSINPKLAGLIGRHGPQNKQPFMVAFFKATEVHFRSIR
notes: source: E. coli, purified by chelating chromatography

Kd [2]: 38 ± 3 nM
B2: BMP-7 PD variant 30-184 (domain or fragment)
chain: not shown
notes: BMP-7 prodomain, residues 30-184 of the BMP-7 precursor; source: E. coli, purified by chelating chromatography

B3: BMP-7 prodomain of the HEK293 EBNA cell-expressed BMP-7 complex (domain or fragment)
chain: not shown
notes: Glycosylated (carbohydrate chains absent in the E. coli preparation); also called PD; BMP-7 PD; source: stably transfected HEK293 EBNA cells, purified as part of the BMP-7 complex (chelating chromatography, gel filtration)
stoichiometry N [3]: 2

Kd [1]: 26.8 ± 3.1 nM
B4: BMP-7 PD variant 218-292 (domain or fragment, UniProt P18075 218-292, looked up)
chain: ASEEGWLVFDITATSNHWVVNPRHNLGLQLSVETLDGQSINPKLAGLIGRHGPQNKQPFMVAFFKATEVHFRSIR
notes: also called Ala218-Arg292; source: E. coli, purified by chelating chromatography

Kd [4]: 31.5 ± 0.2 nM
Kd [5]: 20 ± 0.1 nM
Kd [6]: 19.4 nM
Kd [7]: 19 ± 1 nM
Kd [8]: 15 ± 3 nM
Kd [9]: 8 ± 1 nM
percent inhibition of complex formation (BMP-7 PD (30-292) H66A): 30%
percent inhibition of complex formation (BMP-7 PD (30-292) R67A): ~65%
percent inhibition of complex formation (BMP-7 PD (30-292) P68A): ~65%
B5: BMP-7 growth factor (GF) dimer (ligand, UniProt P18075 293-431, looked up)
chain: STGSKQRSQNRSKTPKNQEALRMANVAENSSSDQRQACKKHELYVSFRDLGWQDWIIAPEGYAAYYCEGECAFPLNSYMNATNHAIVQTLVHFINPETVPKPCCAPTQLNAISVLYFDDSSNVILKKYRNMVVRACGCH
notes: The same GF is a component of the BMP-7 complex m23; also called BMP-7 GF; mature growth factor; source: stably transfected HEK293 EBNA cells; separated from the purified BMP-7 complex in 8 M urea, 1 M NaCl by chelating chromatography (flow-through)

Kd [2]: 27 ± 6 nM
B6: BMP-7 PD variant 30-217 (domain or fragment)
chain: not shown
notes: BMP-7 prodomain, residues 30-217 of the BMP-7 precursor; source: E. coli, purified by chelating chromatography

Kd [2]: 26 ± 4 nM
B7: BMP-7 PD truncation variant 74-292 (domain or fragment)
chain: not shown
notes: as for B1

Binder: B8
Kd [2]: 32 ± 7 nM
Kd [10]: 3 ± 0.01 nM
